Measurements reported in patent publication US20240226039A1, “IMMUNE CHECKPOINT INHIBITOR AND HDAC INHIBITOR COMBINATION THERAPY STRATEGY” (H. Lee Moffitt Cancer Center and Research Institute, Inc., priority 2021, published 2024).

Experiments:
[1] = set-up: species or system human; settings: in vivo
Experimental: Key inclusion criteria: Histologically confirmed mNSCLCm Treatment naïve, and PD-L1 expression≥1% are eligible. Key exclusion criteria: Untreated, progressive, or symptomatic brain metastases, Active uncontrolled autoimmune disorders, and Systemic steroid use equivalent to >10 mg prednisone. […] The primary endpoint was overall response rate (ORR). Additional endpoints included correlative analyses, DOR, PFS and OS. The trial used a Simon Mini-Max two-stage design with interim analysis planned after the first stage when 23 patients were enrolled in each arm.

[2] = tested on: metastatic NSCLC (mNSCLC); assay: Phase II randomized trial, best response / ORR; format: in vivo, human
Experimental: Key exclusion criteria: Untreated, progressive, or symptomatic brain metastases, Active uncontrolled autoimmune disorders, and Systemic steroid use equivalent to >10 mg prednisone. […] The primary endpoint was overall response rate (ORR). Additional endpoints included correlative analyses, DOR, PFS and OS. The trial used a Simon Mini-Max two-stage design with interim analysis planned after the first stage when 23 patients were enrolled in each arm.

[3] = tested on: CD8+ T cells; assay: IHC of CD8+ TIL in pre- and on-treatment core biopsies; format: in vivo, human; settings: biopsy cycle 1 days 15-21; p=0.001 Arm A, p=0.002 Arm B
Experimental: IHC was performed to determine presence of CD8+ T cells and CD33+ myeloid cells. Biopsies were scored using a 0-3 scale separately in the tumor stroma and tumor beds.

## pembrolizumab [Arm A]
[1]
  Pneumonitis Total: 1 (4%)
  Pruritis Gr 2: 0
  Pruritis Gr 3: 0
  Pruritis Gr 4: 0
  QT prolongation Gr 1: 0
  QT prolongation Gr 2: 0
  QT prolongation Gr 3: 0
  QT prolongation Gr 4: 0
  QT prolongation Total: 0
  Rash maculo-papular Gr 1: 0
  Rash maculo-papular Gr 2: 0
  Rash maculo-papular Gr 3: 1 (4%)
  Rash maculo-papular Gr 4: 0
  Rash maculo-papular Total: 1 (4%)
  Thromboembolic event Gr 1: 0
  Thromboembolic event Gr 2: 0
  Thromboembolic event Gr 3: 0
  Thromboembolic event Gr 4: 0
  Thromboembolic event Total: 0
  Total AEs Gr 1: 8
  Total AEs Gr 2: 6
  Total AEs Gr 3: 6
  Total AEs Gr 4: 0
  Total AEs Total: 20
  Total irAEs Gr 1: 4
  Total irAEs Gr 2: 2
  Total irAEs Gr 3: 3
  Total irAEs Gr 4: 0
  Total irAEs Total: 9
  Vomiting Gr 1: 0
  Vomiting Gr 2: 0
  Vomiting Gr 3: 0
  Vomiting Gr 4: 0
  Vomiting Total: 0
  irAE AST increased Gr 1: 0
  irAE AST increased Gr 2: 0
  irAE AST increased Gr 3: 0
  irAE AST increased Gr 4: 0
  irAE AST increased Total: 0
  irAE Adrenal insufficiency Gr 1: 0
  irAE Adrenal insufficiency Gr 2: 1 (4%)
  irAE Adrenal insufficiency Gr 3: 0
  irAE Adrenal insufficiency Gr 4: 0
  irAE Adrenal insufficiency Total: 1 (4%)
  irAE Arthralgia Gr 1: 0
  irAE Arthralgia Gr 2: 0
  irAE Arthralgia Gr 3: 0
  irAE Arthralgia Gr 4: 0
  irAE Arthralgia Total: 0
  irAE Brachial plexopathy Gr 1: 0
  irAE Brachial plexopathy Gr 2: 0
  irAE Brachial plexopathy Gr 3: 0
  irAE Brachial plexopathy Gr 4: 0
  irAE Brachial plexopathy Total: 0
  irAE Colitis Gr 1: 0
  irAE Colitis Gr 2: 1 (4%)
  irAE Colitis Gr 3: 0
  irAE Colitis Gr 4: 0
  irAE Colitis Total: 1 (4%)
  irAE Hepatitis Gr 1: 0
  irAE Hepatitis Gr 2: 0
  irAE Hepatitis Gr 3: 1 (4%)
  irAE Hepatitis Gr 4: 0
  irAE Hepatitis Total: 1 (4%)
  irAE Hypothyroidism Gr 1: 0
  irAE Hypothyroidism Gr 2: 0
  irAE Hypothyroidism Gr 3: 0
  irAE Hypothyroidism Gr 4: 0
  irAE Hypothyroidism Total: 0
  irAE Pancreatic atrophy Gr 1: 0
  irAE Pancreatic atrophy Gr 2: 0
  irAE Pancreatic atrophy Gr 3: 0
  irAE Pancreatic atrophy Gr 4: 0
  irAE Pancreatic atrophy Total: 0
  irAE Pericardial effusion Gr 1: 0
  irAE Pericardial effusion Gr 2: 0
  irAE Pericardial effusion Gr 3: 0
  irAE Pericardial effusion Gr 4: 0
  irAE Pericardial effusion Total: 0
  irAE Pneumonitis Gr 1: 0
  irAE Pneumonitis Gr 2: 0
  irAE Pneumonitis Gr 3: 1 (4%)
  irAE Pneumonitis Gr 4: 0
  irAE Pneumonitis Total: 1 (4%)
  irAE Rash/pruritis/dry skin Gr 1: 4 (17%)
  irAE Rash/pruritis/dry skin Gr 2: 0
  irAE Rash/pruritis/dry skin Gr 3: 1 (4%)
  irAE Rash/pruritis/dry skin Gr 4: 0
  irAE Rash/pruritis/dry skin Total: 5 (21%)
  treatment discontinued due to toxicity, number of patients: 2 patients
  treatment discontinued due to toxicity, share of patients: 8%
[2]; immunotherapy naive patients, p=0.024
  disease control rate, interim analysis: 58%
[2]; immunotherapy naive patients, p=0.026
  PRs, interim analysis: 25%
[2]; in vivo
  ORR in pts with low pre-treatment tumor bed TIL (score=1): 33.3%
[2]; patients n (%), first-line mNSCLC
  Best Response: Progressive Disease: 10 (42%)
[2]; patients n (%), first-line mNSCLC, p = 0.024 between arms
  Disease Control Rate: 14 (58%)
[2]; patients n (%), first-line mNSCLC, p = 0.026 between arms
  Best Response: Partial Response: 6 (25%)
[3]
  change from pre-treatment to on-treatment CD8+ TIL scores: significant increase
